Paper PMC12157500

Columns and labels:
[1] = target: 57CrGPDH705-FLAG, di-domain glycerol-3-phosphate dehydrogenase from Chlamydomonas reinhardtii with 30 additional N-terminal amino acids (Chlamydomonas reinhardtii); test: SEC
[2] = target: 87CrGPDH705-FLAG, di-domain glycerol-3-phosphate dehydrogenase from Chlamydomonas reinhardtii with the chloroplast targeting sequence removed (Chlamydomonas reinhardtii); test: SEC

**Q.** With “57CrGPDH705-FLAG, di-domain glycerol-3-phosphate dehydrogenase from Chlamydomonas reinhardtii with 30 additional N-terminal amino acids (enzyme)” as the substance, how does the stoichiometry N [1] read?
**A.** The stoichiometry N was 5.

**Q.** How did the stoichiometry N [2] turn out when “87CrGPDH705-FLAG, di-domain glycerol-3-phosphate dehydrogenase from Chlamydomonas reinhardtii with the chloroplast targeting sequence removed (enzyme)” was run?
**A.** The stoichiometry N was 4.
